Test results from US20210355204A1.

Key:
Test in all cases: SPR competition: 4 nM TGFβ pre-mixed with TGFβ-RIIb-Fc, injected over immobilised XPA.42.089 (competitor)
TGFβ1 (human) = TGFβ1 (human) (UniProt P01137)
TGFβ3 (human) = TGFβ3 (human) (UniProt P10600)
TGFβ2 (human) = TGFβ2 (human) (UniProt P61812)

- average RU of TGFβ binding (TGFβ1 (human)): -0.316 RU
- average RU of TGFβ binding (TGFβ3 (human)): -0.378 RU
- average RU of TGFβ binding (TGFβ2 (human)): 38.2 RU
Substance: TGFβ-RIIb-Fc recombinant receptor (from UniProt P37173 23-184) (Fc fusion)
